Experimental data reported in the supplement of paper PMC12042874.
± gives the uncertainty stated by the source.

Assay: amyloid nucleation score (Sup35N fusion, yeast selection) (log enrichment); library NNK1; higher = more nucleation; inactive = no reads after selection
Outline: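 Yeast lacking psi expressed peptides of 20 random codons fused to Sup35N, received 100 μM copper sulfate for 24 hours, and were then grown for 7 days at 30°C on medium lacking adenine and uracil. Illumina sequencing of input and output plasmid inserts provided the reads. Nucleation scores are DiMSum log enrichments of output over input, centred on the mode of non-aggregating sequences. Any sequence with under 100 input reads was excluded.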

Substance | amyloid nucleation score
NVKICDGAIIYMSSMASFEL | 4.79 ± 0.092
ISLWLFVFCCHIISISKWLL | inactive
FFILW | -0.75 ± 1.2
NVSVENLGYTLSIPSSMICS | 0.319 ± 0.23
SWSLALL | -0.278 ± 0.85
SLSNCTGKNVLVTLS | 0.428 ± 1.2
IYYRTMYYMVVSSIN | 0.394 ± 0.65
GRVFAVSYFVRAGLVNEG | 0.082 ± 0.7
GFWDFWVGRCLSSYVQFANL | 0.28 ± 0.48
PGSANASLTERFLMKMVGED | 0.053 ± 0.78
HCPKAVGINEWPEMRFYVNL | -0.05 ± 0.96
IFGKTFTGYMVRFGVVHDLA | 0.358 ± 0.41
IDMIVGNLN | inactive
NLFSGNLPRFDFAIQGAFVN | -0.447 ± 0.48
HLWSFAEMLNNHAVEDCVCT | inactive
VIITLSRCSRDHTDVMGTFV | -0.81 ± 1.4
FVIFSIELCGHRATSSSFNL | 5.565 ± 0.047
NALASLKVMILDPTMELCCA | 0.996 ± 0.9
MDTSL | -0.235 ± 0.82
IGYLDMGNRFGYLLARC | -1.1 ± 0.62
NHEKGQRTVTMWLSLKDSMG | 3.02 ± 0.12
IYRMRDNMNSRLRVYFNRVF | inactive

Substance | amyloid nucleation score
HLEGFYLGIWHGRSRVFSRN | 2.77 ± 0.23
NNKQYLI | 1.59 ± 0.38
SRWPAVVRTLFRSCKV | 0.48 ± 0.65
GSADSFRGYGCFILVKATWY | 0.717 ± 0.46
LILRLVHKLGLCVPLSGSRG | -0.827 ± 1.7
PLRDKESVLMWLYSYWVTNI | 0.017 ± 0.32
WLHGFKWRED | -0.541 ± 0.68
SVLCHCVLNVWLGWHLWIDP | 0.707 ± 0.53
DYMDSCGYVDSATRYKVSEM | -0.241 ± 1.1
STRDQSDVMDRLTGEHHQQW | 0.363 ± 0.41
VSVNRVFFVSWAISKTIS | -0.689 ± 0.55
GVGWISKPNHLDTFITTS | 0.738 ± 0.35
IWLSLYIAFYGCLHGWFPSQ | 0.645 ± 0.6
ALSSNVGSMAFSR | -0.06 ± 0.88
RCSFIS | -0.682 ± 0.75
QCWEWIR | -0.564 ± 0.84
VNGARRQFRRLMPCLEAWVS | -0.372 ± 0.32
SHSLHLESSASSLTR | -1 ± 0.51
FRIVGSRMFVLLLCYVSSGR | 0.241 ± 0.27
SRDVVSAGYKKCGYGMYCTK | 1.11 ± 0.37
MMSPLKR | inactive
TACRLQYSNSYLFLSSAEPV | 1.28 ± 0.69

Substance | amyloid nucleation score
SRCCRYLKHVRSIGSVQVAS | 1.16 ± 0.32
NNLSANVSLGPGCAGGQPRA | 0.764 ± 0.61
MIMTW | -0.418 ± 0.48
HMWIEFSAVLFSYDMASSNV | -0.417 ± 0.52
LEYYLVWYNVYL | 0.534 ± 0.19
IEDAALRSKEPGFVQHNYSS | 4.17 ± 0.077
RLLFLFVHVSYGI | 0.014 ± 0.47
CSWLSFVEEVGLGSERGVRG | -0.629 ± 1
RLSLETIVASFIYCCCAKFA | 1.66 ± 0.5
NSGEEYVRVEGNCAFKSLSC | 0.416 ± 0.15
GSTCIRTGSVIVGRL | 0.301 ± 0.28
DKTECDQCIKSG | -0.691 ± 0.42
SLDLFSIKATRSDWSGFLRT | -0.613 ± 0.94
FGPGCCIFL | 7.481 ± 0.054
IQSRDGVSYKQDVWTLGCVL | 0.658 ± 0.55
SSGDGRRAP | 0.335 ± 0.39
MRGAVKVGEMWNHISESRVG | 0.98 ± 0.6
YIHLMRYARNLLPFRYCV | -0.641 ± 0.5
CIRVSIVID | 0.215 ± 0.38
YYDYGEYIIKGVLPWIRGFY | 0.513 ± 0.31
CVKLGYYWSF | 0.598 ± 0.16
NLREDENSGCNCGVDFLGQG | -0.435 ± 0.4

Substance | amyloid nucleation score
RNQRSSMWVGNRCYGGRCVW | 0.898 ± 0.93
IYRFSCETHIFQYSRQVLFG | 0.786 ± 0.63
FFRVLFFTFLAWYVELKWQL | -0.201 ± 0.78
KCWPLLRITSVCVFAFTGER | 0.937 ± 0.58
RLFYTRSDSGGVRLVVLAVG | 0.003 ± 1.2
FRVVCVHSLSMGNVFNFDWR | 4.77 ± 0.08
YLAGILHTCLTLDSDVRFYT | 0.722 ± 0.54
RPAKLMAMPKILIGPH | 0.131 ± 0.26
GGRLEKRTCASCTSGQVVGV | 0.294 ± 0.42
FSNLKISWECNRCGSYYDCE | -0.122 ± 1.4
NMEWYRTFCSQCYIGRRGTS | 0.476 ± 0.9
FSVYVGVILCVSATVDVWAC | 1.87 ± 0.23
VNSSKFKRVIYLV | -0.453 ± 0.27
TAIDITTVLCIICRDPHINL | 8.364 ± 0.048
RAFNRIINHRTEGNNPYYFL | inactive
RAWQHNFGKIMRSPRVFVRW | -1.4 ± 0.94
VGKITESLLEQLKARHLFCH | 4.41 ± 0.058
VIGYWGW | -0.164 ± 0.4
QLAERTGVHCSQFTKWFFKM | 1.72 ± 0.38
FTSSVIILCIFYWNGLVRIF | -0.505 ± 1.5
